Source: patent publication US20230250154A1 (CYTONICS, published 2023)

T1: ADAMTS5 (human, UniProt Q9UNA0 262-622, limits assumed)
T1 sequence (looked up): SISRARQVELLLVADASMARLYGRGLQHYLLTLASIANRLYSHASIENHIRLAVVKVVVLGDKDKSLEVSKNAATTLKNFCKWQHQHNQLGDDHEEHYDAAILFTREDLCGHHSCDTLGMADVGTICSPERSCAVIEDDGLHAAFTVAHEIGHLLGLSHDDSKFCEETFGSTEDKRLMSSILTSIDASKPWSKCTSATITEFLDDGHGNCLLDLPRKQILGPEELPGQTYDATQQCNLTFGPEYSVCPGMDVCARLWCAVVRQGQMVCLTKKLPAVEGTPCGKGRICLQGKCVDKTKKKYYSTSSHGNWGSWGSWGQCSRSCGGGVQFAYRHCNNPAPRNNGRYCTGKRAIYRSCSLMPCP

T2: ADAMTS4 (human, UniProt O75173 213-685, limits assumed)
T2 sequence (looked up): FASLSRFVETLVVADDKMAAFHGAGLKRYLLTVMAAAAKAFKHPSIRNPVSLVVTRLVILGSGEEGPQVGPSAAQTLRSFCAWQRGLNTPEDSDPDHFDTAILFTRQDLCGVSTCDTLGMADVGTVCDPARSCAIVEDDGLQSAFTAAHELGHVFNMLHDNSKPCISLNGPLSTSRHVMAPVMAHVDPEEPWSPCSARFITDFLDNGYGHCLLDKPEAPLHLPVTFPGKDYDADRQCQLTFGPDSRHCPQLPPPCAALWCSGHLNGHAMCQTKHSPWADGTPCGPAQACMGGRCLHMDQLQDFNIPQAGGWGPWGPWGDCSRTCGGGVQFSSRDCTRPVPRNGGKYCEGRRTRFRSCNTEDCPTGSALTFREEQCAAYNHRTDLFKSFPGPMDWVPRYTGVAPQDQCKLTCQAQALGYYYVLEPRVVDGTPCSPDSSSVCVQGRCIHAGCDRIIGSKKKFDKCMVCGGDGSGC

B1: Variant A2M, bait region SEQ ID NO 119 (other)
chain: SVSGKPQYMVLVPSLLHTETTEKGCVLLSYLNETVTVSASLESVRGNRSLFTDLEAENDVLHCVAFAVPKSSSNEEVMFLTVQVKGPTQEFKKRTTVMVKNEDSLVFVQTDKSIYKPGQTVKFRVVSMDENFHPLNELIPLVYIQDPKGNRIAQWQSFQLEGGLKQFSFPLSSEPFQGSYKVVVQKKSGGRTEHPFTVEEFVLPKFEVQVTVPKIITILEEEMNVSVCGLYTYGKPVPGHVTVSICRKYSDASDCHGEDSQAFCEKFSGQLNSHGCFYQQVKTKVFQLKRKEYEMKLHTEAQIQEEGTVVELTGRQSSEITRTITKLSFVKVDSHFRQGIPFFGQVRLVDGKGVPIPNKVIFIRGNEANYYSNATTDEHGLVQFSINTTNVMGTSLTVRVNYKDRSPCYGYQWVSEEHEEAHHTAYLVFSPSKSFVHLEPMSHELPCGHTQTVQAHYILNGGTLLGLKKLSFYYLIMAKGGIVRTGTHGLLVKQEDMKGHFSISIPVKSDIAPVARLLIYAVLPTGDVIGDSAKYDVENCLANKVDLSFSPSQSLPASHAHLRVTAAPQSVCALRAVDQSVLLMKPDAELSASSVYNLLPEKDLTGFPGPLNDQDDEDCINRHNVYINGITYTPVSSTNEKDMYSFLEDMGLKAFTNSKIRKPKMCPQLELQQYEMHGPEGLRVGEAIPMSIPIPENFFGVKEEEGLGSKLRKYFPETWIWDLVVVNSAGVAEVGVTVPDTITEWKAGAFCLSEDAGLGISSTASLRAFQPFFVELTMPYSVIRGEAFTLKATVLNYLPKCIRVSVQLEASPAFLAVPVEKEQAPHCICANGRQTVSWAVTPKSLGNVNFTVSAEALESQELCGTEVPSVPEHGRKDTVIKPLLVEPEGLEKETTFNSLLCPSGGEVSEELSLKLPPNVVEESARASVSVLGDILGSAMQNTQNLLQMPYGCGEQNMVLFAPNIYVLDYLNETQQLTPEIKSKAIGYLNTGYQRQLNYKHYDGSYSTFGERYGRNQGNTWLTAFVLKTFAQARAYIFIDEAHITQALIWLSQRQKDNGCFRSSGSLLNNAIKGGVEDEVTLSAYITIALLEIPLTVTHPVVRNALFCLESAWKTAQEGDHGSHVYTKALLAYAFALAGNQDKRKEVLKSLNEEAVKKDNSVHWERPQKPKAPVGHFYEPQAPSAEVEMTSYVLLAYLTAQPAPTSEDLTSATNIVKWITKQQNAQGGFSSTQDTVVALHALSKYGAATFTRTGKAAQVTIQSSGTFSSKFQVDNNNRLLLQQVSLPELPGEYSMKVTGEGCVYLQTSLKYNILPEKEEFPFALGVQTLPQTCDEPKAHTSFQISLSVSYTGSRSASNMAIVDVKMVSGFIPLKPTVKMLERSNHVSRTEVSSNHVLIYLDKVSNQTLSLFFTVLQDVPVRDLKPAIVKVYDYYETDEFAIAEYNAPCSKDLGNADYKDDDDKGASHHHHHH
B2: Variant A2M, bait region SEQ ID NO 117 (other)
chain: SVSGKPQYMVLVPSLLHTETTEKGCVLLSYLNETVTVSASLESVRGNRSLFTDLEAENDVLHCVAFAVPKSSSNEEVMFLTVQVKGPTQEFKKRTTVMVKNEDSLVFVQTDKSIYKPGQTVKFRVVSMDENFHPLNELIPLVYIQDPKGNRIAQWQSFQLEGGLKQFSFPLSSEPFQGSYKVVVQKKSGGRTEHPFTVEEFVLPKFEVQVTVPKIITILEEEMNVSVCGLYTYGKPVPGHVTVSICRKYSDASDCHGEDSQAFCEKFSGQLNSHGCFYQQVKTKVFQLKRKEYEMKLHTEAQIQEEGTVVELTGRQSSEITRTITKLSFVKVDSHFRQGIPFFGQVRLVDGKGVPIPNKVIFIRGNEANYYSNATTDEHGLVQFSINTTNVMGTSLTVRVNYKDRSPCYGYQWVSEEHEEAHHTAYLVFSPSKSFVHLEPMSHELPCGHTQTVQAHYILNGGTLLGLKKLSFYYLIMAKGGIVRTGTHGLLVKQEDMKGHFSISIPVKSDIAPVARLLIYAVLPTGDVIGDSAKYDVENCLANKVDLSFSPSQSLPASHAHLRVTAAPQSVCALRAVDQSVLLMKPDAELSASSVYNLLPEKDLTGFPGPLNDQDDEDCINRHNVYINGITYTPVSSTNEKDMYSFLEDMGLKAFTNSKIRKPKMCPQLEENFFGVTEGEARGSPTSEDLVVQKEEEGLGSEAIPMSIPKLRKYFPETWIWDLVVVNSAGVAEVGVTVPDTITEWKAGAFCLSEDAGLGISSTASLRAFQPFFVELTMPYSVIRGEAFTLKATVLNYLPKCIRVSVQLEASPAFLAVPVEKEQAPHCICANGRQTVSWAVTPKSLGNVNFTVSAEALESQELCGTEVPSVPEHGRKDTVIKPLLVEPEGLEKETTFNSLLCPSGGEVSEELSLKLPPNVVEESARASVSVLGDILGSAMQNTQNLLQMPYGCGEQNMVLFAPNIYVLDYLNETQQLTPEIKSKAIGYLNTGYQRQLNYKHYDGSYSTFGERYGRNQGNTWLTAFVLKTFAQARAYIFIDEAHITQALIWLSQRQKDNGCFRSSGSLLNNAIKGGVEDEVTLSAYITIALLEIPLTVTHPVVRNALFCLESAWKTAQEGDHGSHVYTKALLAYAFALAGNQDKRKEVLKSLNEEAVKKDNSVHWERPQKPKAPVGHFYEPQAPSAEVEMTSYVLLAYLTAQPAPTSEDLTSATNIVKWITKQQNAQGGFSSTQDTVVALHALSKYGAATFTRTGKAAQVTIQSSGTFSSKFQVDNNNRLLLQQVSLPELPGEYSMKVTGEGCVYLQTSLKYNILPEKEEFPFALGVQTLPQTCDEPKAHTSFQISLSVSYTGSRSASNMAIVDVKMVSGFIPLKPTVKMLERSNHVSRTEVSSNHVLIYLDKVSNQTLSLFFTVLQDVPVRDLKPAIVKVYDYYETDEFAIAEYNAPCSKDLGNADYKDDDDKGASHHHHHH
B3: Variant A2M, bait region SEQ ID NO 116 (other)
chain: SVSGKPQYMVLVPSLLHTETTEKGCVLLSYLNETVTVSASLESVRGNRSLFTDLEAENDVLHCVAFAVPKSSSNEEVMFLTVQVKGPTQEFKKRTTVMVKNEDSLVFVQTDKSIYKPGQTVKFRVVSMDENFHPLNELIPLVYIQDPKGNRIAQWQSFQLEGGLKQFSFPLSSEPFQGSYKVVVQKKSGGRTEHPFTVEEFVLPKFEVQVTVPKIITILEEEMNVSVCGLYTYGKPVPGHVTVSICRKYSDASDCHGEDSQAFCEKFSGQLNSHGCFYQQVKTKVFQLKRKEYEMKLHTEAQIQEEGTVVELTGRQSSEITRTITKLSFVKVDSHFRQGIPFFGQVRLVDGKGVPIPNKVIFIRGNEANYYSNATTDEHGLVQFSINTTNVMGTSLTVRVNYKDRSPCYGYQWVSEEHEEAHHTAYLVFSPSKSFVHLEPMSHELPCGHTQTVQAHYILNGGTLLGLKKLSFYYLIMAKGGIVRTGTHGLLVKQEDMKGHFSISIPVKSDIAPVARLLIYAVLPTGDVIGDSAKYDVENCLANKVDLSFSPSQSLPASHAHLRVTAAPQSVCALRAVDQSVLLMKPDAELSASSVYNLLPEKDLTGFPGPLNDQDDEDCINRHNVYINGITYTPVSSTNEKDMYSFLEDMGLKAFTNSKIRKPKMCPQLEELEGRGSKEEEGLGSIPENFFGVFYESDVMGRGHARLVHVEEPHTKLRKYFPETWIWDLVVVNSAGVAEVGVTVPDTITEWKAGAFCLSEDAGLGISSTASLRAFQPFFVELTMPYSVIRGEAFTLKATVLNYLPKCIRVSVQLEASPAFLAVPVEKEQAPHCICANGRQTVSWAVTPKSLGNVNFTVSAEALESQELCGTEVPSVPEHGRKDTVIKPLLVEPEGLEKETTFNSLLCPSGGEVSEELSLKLPPNVVEESARASVSVLGDILGSAMQNTQNLLQMPYGCGEQNMVLFAPNIYVLDYLNETQQLTPEIKSKAIGYLNTGYQRQLNYKHYDGSYSTFGERYGRNQGNTWLTAFVLKTFAQARAYIFIDEAHITQALIWLSQRQKDNGCFRSSGSLLNNAIKGGVEDEVTLSAYITIALLEIPLTVTHPVVRNALFCLESAWKTAQEGDHGSHVYTKALLAYAFALAGNQDKRKEVLKSLNEEAVKKDNSVHWERPQKPKAPVGHFYEPQAPSAEVEMTSYVLLAYLTAQPAPTSEDLTSATNIVKWITKQQNAQGGFSSTQDTVVALHALSKYGAATFTRTGKAAQVTIQSSGTFSSKFQVDNNNRLLLQQVSLPELPGEYSMKVTGEGCVYLQTSLKYNILPEKEEFPFALGVQTLPQTCDEPKAHTSFQISLSVSYTGSRSASNMAIVDVKMVSGFIPLKPTVKMLERSNHVSRTEVSSNHVLIYLDKVSNQTLSLFFTVLQDVPVRDLKPAIVKVYDYYETDEFAIAEYNAPCSKDLGNADYKDDDDKGASHHHHHH

Key:
Experiment in all cases: cell-based or functional assay
MMP13 = MMP13 (human, UniProt P45452 104-471, limits assumed)
ADAMTS5 = biological target: T1, ADAMTS5
ADAMTS4 = biological target: T2, ADAMTS4

Row | Binder | Protease Inhibition (% of WT) (MMP13) | Protease Inhibition (% of WT) (ADAMTS5) | Protease Inhibition (% of WT) (ADAMTS4)
1 | B1 | 90 % of WT | 170 % of WT | 100 % of WT
2 | B2 | 11 % of WT | 190 % of WT | 100 % of WT
3 | B3 | 116 % of WT | 92 % of WT | 107 % of WT
